Test results taken from US20200207857A1.
Substitutions are numbered along the chain they refer to.

B1: h5C9og (antibody, V domains shown)
VH: EVQLVESGGGLVQPGGSLRLSCAVSGYTFSMNWVRQAPGKGLEWVAWINMYTGEPTYADDFKGRFTISRDDSKNTLYLQMNSLRAEDTAVYYCARLYRGNSLDYWGQGTLVTVSS
VL: DIQMTQSPSSLSASVGDRVTITCKSSQSLLNSGNQKSYLTWYQQKPGKAPKLLIYWASTLESGVPSRFSGSGSGTDYTLTISSLQPEDFATYYCQNSYSFPFTFGQGTKVEIK
B2: h5C9oa (antibody, V domains shown)
VH: B1 VH with R98N
VL: B1 VL with S97A, S99A
B3: h5C9oc (antibody, V domains shown)
VH: B1 VH with R98N
VL: B1 VL with S97G
B4: h5C9oe (antibody, V domains shown)
VH: B1 VH with R98N
VL: B1 VL with S97A, S99R
B5: h5C9of (antibody, V domains shown)
VH: B1 VH with R98N
VL: B1 VL
B6: h5C9od (antibody, V domains shown)
VH: B1 VH with R98N
VL: B1 VL with S97A, S99W
B7: 1D5 (antibody, V domains shown)
VH: VQLQESGAELVRPGTSVKVSCKASRYAFTNYLIEWVKQRPGQGLEWIGMINPGSGGTHYNEKFKVKATLTADKSSSTAYMQLNSLTSDDSAVYFCARGGFGNSFAYWGQGTLVTVSA
VL: DIMMTQTPLSLTVTAGEKVTMSCKSSQSLLNGGNLKNYLTWYQQKPGQPPKLLTYWASTRESGVPARFTGSGSGTDFTLTISSVQAEDLAVYYCQNGYFYPYTFGGGTKLEIK
B8: 7A10 (antibody, V domains shown)
VH: B7 VH with R25G, H58N, V65G, N83S
VL: B7 VL with T7S, G32S, E61D, G97D
B9: 5H7 (antibody, V domains shown)
VH: EVKLQESGPSLVKPFQSLSLTCTVTDYSITRGYNWHWIRQFPGNKLEWMGYIHYSGSTNYNPSLKSRISITRDTSKNQFFLQLNSVTTEDTATYYCARDYYGNSFAYWGQGTLVTVFC
VL: DIVMTQDELSLTVTAREKVTMSCKSSQTLFNSGNQKNYLTWYQQKPGQPPKLLIYWASTRESGVPDRFTGSGSGTDFTLTISSVQAEDLAVYYCQNDYIFPYTFGGGTKLEIK
B10: 14D7 (antibody, V domains shown)
VH: VQLQQSGGGLVQPGGSRKLSCAASGFTFSSFGMHWVRQAPEKGLEWVGYINSGSSTIYYADTVKGRFTISRDNPRNTLFLQMTSLRSEDTAMYYCASGAYYGNAMDYWGQGTSVTVSS
VL: MTQDELSLTVTAGEKVTMSCKSSQSLLNSGNQRNYLTWYQQKPGQPPKLLIYWASTRESGVPNRFTGSGSGTDFTLTISSVQAVDLAVYYCQNNYFYPLTFGSGTKLELK
B11: 5G7 (antibody, V domains shown)
VH: KVQLQESGPELVRPGTSVKVSCKASKYAFTNYLIEWIKQRPGQGLEWIGMINPGSDGSHYNEKFKGKATLTADKSSSTAYMQLSSLTSDDSAVYFCARVGYGNSFAYWGQGTLVTVSA
VL: B10 VL with M18L, P43K, N63D, F65L, S80G, V84E, N94A, F96Y, L99F, L109I
B12: 4G3 (antibody, V domains shown)
VH: KVQLQQSGGGLVQPGGSRKLSCAASGFTFSSFGMHWVRQAPEKGLEWVGYINSGSSTIYYADTVKGRFTISRDNPRNTLFLQMTSLRSEDTAMYYCASGAYYGNAMDYWGQGTSVTVSS
VL: DIVMTQDELSLTVTVGDKVTMNCRSSQSLLNSGNQRNYLTWYQQKPGQPPKLLIYWASTRESGVPDRFTGSGSGTDFTLTISSVQAEDLAVYYCQNVYFYPLTFGTGTKLELK
B13: 14B7 (antibody, V domains shown)
VH: KVKLQESGPELVKPGASVKIPCKASGYTFTDYKMDWVKQSHGKSLEWIGDINPNNGGTIYNQKFKGKATLTVDRSSSTAYMELRSLTSEDTAVYYCARSYYGNSLAYWGQGTLVTVSA
VL: B9 VL with R16G, T28S, F30L, Q48L, D97N, F100Y, Y102L, G106A, I112L
B14: 8C12 (antibody, V domains shown)
VH: EVQLQQSGGGLVQPGGSRKLSCAASGFTFSDYGMAWVRQAPGKGPEWVAFISNLAYSIYSTDTVTGRFTISRENAKNTLYLEMSSLRSDDTAMYYCARGSYYGNSFDYWGQGTTLTVSS
VL: DIVLTQSPAIMSASPGEKVTMTCSASSSVSYMYWYQQKPGSSPKPWIYDTSNLASGFPARFSGSGSGTSYSLIISNMEAEDAATYYCHQRSSYPTFGTGTKLELK
B15: h5C9a (antibody, V domains shown)
VH: EVQLVESGGGLVQPGGSLRLSCAASGYTFTNYGMNWVRQAPGKGLEWVAWINMYTGEPTYADDFKGRFTISRDDSKNTLYLQMNSLRAEDTAVYYCARLYNGNSLDYWGQGTLVTVSS
VL: B1 VL with Y77F, S97A
B16: h5C9ox (antibody, V domains shown)
VH: B1 VH with L96A, Y97S, S101G, L102M
VL: B1 VL with S97A
B17: h5C9oap (antibody, V domains shown)
VH: B1 VH with P55R, R98N
VL: B1 VL with S32W, E61Q, S97A
B18: h5C9oo (antibody, V domains shown)
VH: B1 VH with Y97V, S101G, L102F
VL: B1 VL with S97A
B19: h5C9oq (antibody, V domains shown)
VH: B1 VH with S101V, L102M
VL: B1 VL with S97A
B20: h5C9ok (antibody, V domains shown)
VH: B1 VH with Y97T
VL: B1 VL with S97A
B21: h5C9oaa (antibody, V domains shown)
VH: B1 VH with Y97V, S101G, L102M
VL: B1 VL with S97A
B22: h5C9os (antibody, V domains shown)
VH: B1 VH with L96T, Y97G, R98T, S101T, L102M
VL: B1 VL with S97A
B23: h5C9n (antibody, V domains shown)
VH: B15 VH with A24V
VL: B1 VL with Y77F, S97A
B24: h5C9oz (antibody, V domains shown)
VH: B1 VH with Y97S
VL: B1 VL with S97A
B25: h5C9oar (antibody, V domains shown)
VH: B1 VH with T56N, R98N
VL: B1 VL with S32W, E61W, S97A
B26: h5C9ol (antibody, V domains shown)
VH: B1 VH with Y97G, R98P, S101V, L102F
VL: B1 VL with S97A
B27: h5C9oy (antibody, V domains shown)
VH: B1 VH with L96S, Y97S, R98K, S101G
VL: B1 VL with S97A
B28: h5C9on (antibody, V domains shown)
VH: B1 VH with L96T, Y97A, R98P, S101G, L102F
VL: B1 VL with S97A
B29: h5C9oaq (antibody, V domains shown)
VH: B1 VH with P55Q, R98N
VL: B1 VL with S32W, E61F, S97A
B30: h5C9op (antibody, V domains shown)
VH: B1 VH with L96T, Y97S, S101G, L102M
VL: B1 VL with S97A
B31: h5C9om (antibody, V domains shown)
VH: B1 VH with Y97A, S101G, L102F
VL: B1 VL with S97A
B32: h5C9ov (antibody, V domains shown)
VH: B1 VH with Y97V, R98K, S101G, L102F
VL: B1 VL with S97A
B33: h5C9ow (antibody, V domains shown)
VH: B1 VH with Y97T, R98K, S101G, L102M
VL: B1 VL with S97A
B34: h5C9or (antibody, V domains shown)
VH: B1 VH with Y97N, L102M
VL: B1 VL with S97A
B35: h5C9ou (antibody, V domains shown)
VH: B1 VH with Y97S, R98K, S101G, L102M
VL: B1 VL with S97A
B36: h5C9ot (antibody, V domains shown)
VH: B1 VH with L96S, Y97S, R98M, S101G, L102F
VL: B1 VL with S97A

Molecular target: Recombinant protein Claudin 18.2
Assay: ELISA on plate-coated recombinant Claudin 18.2, OD450; Kd table under the graph, no unit in the table, unit from the x axis log[antibody] nM

Recombinant protein Claudin 18.2, sequence (chain, as listed by the source limits assumed, form in doubt): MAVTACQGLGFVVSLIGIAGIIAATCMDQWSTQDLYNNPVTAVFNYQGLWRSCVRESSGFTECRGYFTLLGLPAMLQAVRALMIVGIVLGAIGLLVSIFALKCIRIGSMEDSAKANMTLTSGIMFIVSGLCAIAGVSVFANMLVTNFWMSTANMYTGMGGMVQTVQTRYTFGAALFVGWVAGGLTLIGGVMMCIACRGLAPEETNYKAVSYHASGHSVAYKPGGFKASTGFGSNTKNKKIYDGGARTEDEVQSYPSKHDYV

| Kd | Binder |
| --- | --- |
| 0.0884 nM | B1 |
| 0.0894 nM | B2 |
| 0.0848 nM | B3 |
| 0.0878 nM | B4 |
| 0.103 nM | B5 |
| 0.0876 nM | B6 |

Molecular target: Recombinant protein Claudin 18.2
Assay: ELISA on plate-coated recombinant Claudin 18.2, OD370; Kd table under the graph, no unit in the table, unit from the x axis log[antibody] nM

| Kd | Binder |
| --- | --- |
| 0.055 nM | B7 |
| 0.103 nM | B8 |
| 0.136 nM | B9 |
| 0.1 nM | B10 |
| 0.293 nM | B11 |
| 0.343 nM | B12 |
| 0.2 nM | B13 |
| 0.0782 nM | B14 |

Molecular target: Recombinant protein Claudin 18.2
Assay: ELISA on plate-coated recombinant Claudin 18.2, OD450; Kd table under the graph, no unit in the table, unit from the x axis log[antibody] nM
Remark: another data set of the same source

| Kd | Binder |
| --- | --- |
| 0.278 nM | B15 |
| 0.079 nM | B16 |
| 0.189 nM | B17 |
| 0.122 nM | B18 |
| 0.107 nM | B19 |
| 0.108 nM | B20 |
| 0.0815 nM | B21 |
| 0.134 nM | B22 |
| 0.323 nM | B23 |
| 0.0778 nM | B24 |
| 0.149 nM | B25 |
| 0.119 nM | B26 |
| 0.103 nM | B27 |
| 0.131 nM | B28 |
| 0.203 nM | B29 |
| 0.109 nM | B30 |
| 0.1 nM | B31 |
| 0.107 nM | B32 |
| 0.0882 nM | B33 |
| 0.0715 nM | B34 |
| 0.0919 nM | B35 |
| 0.0987 nM | B36 |
